Test results reported in article PMC9204165, “Delineating the Role of the msaABCR Operon in Staphylococcal Overflow Metabolism”.

Columns and labels:
[1] = biological target: T1, MsaB-His (MsaBhis) (Staphylococcus aureus USA300 LAC) (UniProt Q2FH36); assay: EMSA
T1 sequence: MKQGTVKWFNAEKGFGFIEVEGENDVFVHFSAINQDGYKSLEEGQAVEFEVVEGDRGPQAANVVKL

[2] = biological target: T1, MsaB-His (MsaBhis) (Staphylococcus aureus USA300 LAC); assay: competition
MsaB-His (MsaBhis) = biological target: T2, MsaB-His (MsaBhis) (Staphylococcus aureus USA300 LAC, UniProt Q2FH36 1-66); assay: EMSA; 5 mM MgCl2, poly(dI-dC); details: protein: recombinant; tags: C-terminal 6xHis; label: 5'-biotin
T2 sequence: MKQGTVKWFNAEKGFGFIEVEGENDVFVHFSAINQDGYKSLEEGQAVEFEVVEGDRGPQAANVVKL

TCCACTAACATCATCCTAACTATTTCAACACGTTTATTTCATTATACACAACTTCTTAAACATTCAATAAATTTAGATTTATAAAATTGCTTTATAAAAAGTTTTATGTAAAATACACATTCTTTTATGGTATTATATTAATGGCTCAAGT (double strand) [PcidR promoter probe]
binding [1]: binds

TCCACTAACATCATCCTAACTATTTCAACACGTTTATTTCATTATACACAACTTCTTAAACATTCAATAAATTTAGATTTATAAAATTGCTTTATAAAAAGTTTTATGTAAAATACACATTCTTTTATGGTATTATATTAATGGCTCAAGT (double strand) [PcidR promoter unlabeled competitor]
binding [2]: binds

B1: PcidABC-EMSA (dsDNA)
DNA 1: AGTGAAATTTAGAGAGCGTTTCCATAGAAAATAGTAATACAAACCATAAAAAAAGAGTAT
DNA 2: ATACTCTTTTTTTATGGTTTGTATTACTATTTTCTATGGAAACGCTCTCTAAATTTCACT
binding result (MsaB-His (MsaBhis)): no binding

B2: PalsSD-EMSA (dsDNA)
DNA 1: ATACTCTTTTTTTATGGTTTGTATTACTATTTTCTATGGAAACGCTCTCTAAATTTCACT
DNA 2: AGTGAAATTTAGAGAGCGTTTCCATAGAAAATAGTAATACAAACCATAAAAAAAGAGTAT
binding result (MsaB-His (MsaBhis)): no binding
